Target: the molecule itself
Assay: reducing and non-reducing SDS-PAGE

B1: PIV 5 HN stalk region, HN(stalk) (domain or fragment)
chain: SPSSGLGSITDLLNNILSVANQIIYNSAVALPLQLDTLESTLLTAIKSLQTSDKLEQNCSWSAAL
modifications: also: inter-chain disulfide, covalent dimer
stoichiometry N: 2
